Measured values taken from patent US20190170753A1 (ICAHN SCHOOL OF MEDICINE AT MOUNT SINAI, published 2019).

Columns and labels:
[1] = biological target: T1, HCV core peptide 48 (hepatitis C virus, HELM PEPTIDE1{[O=C1N[C@H]2[C@H](CS[C@H]2CCCCC(=O)[*:2])N1].S.G.S.G.G.W.L.L.S.P.R.G.S.R.P.S.W.G.P.[am]}$$$$V2.0; SMILES …); experiment: peptide EIA
T1 construct: also called aa 95-109
T1 peptide: SGSGGWLLSPRGSRPSWGP

[2] = biological target: T2, HCV core peptide 49 (hepatitis C virus, HELM PEPTIDE1{[O=C1N[C@H]2[C@H](CS[C@H]2CCCCC(=O)[*:2])N1].S.G.S.G.L.L.S.P.R.G.S.R.P.S.W.G.P.T.D.[am]}$$$$V2.0; SMILES …); experiment: peptide EIA
T2 peptide: SGSGLLSPRGSRPSWGPTD

[3] = biological target: T3, HCV core peptide 1 (hepatitis C virus, N-terminal biotin; C-terminal amide); experiment: peptide EIA, 2 ug/mL IgG;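 further: purified mouse IgG binding to individually well-coated synthetic peptides, detected with peroxidase anti-mouse IgG Fc and o-phenylenediamine, IgG incubated at least 1 h at room temperature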
T3 construct: range 1-15
Description: (§1) The coated plates were kept dry in a sealed foil pouch and stored at <10 degrees C. until ready for use. A peptide coated plate for each test antibody was blocked using 3% BSA in PBS with 0.5% Tween 20. The blocked plates were washed with distilled water and a 2 ug/mL solution of purified IgG from each test sample diluted in BSA block solution was added to each peptide coated well of the blocked plate and allowed to incubate at room temperature for at least one hour. Following incubation the plates were washed with distilled water. A 200 ng/mL solution of peroxidase labeled F(ab′)2 fragment goat anti-mouse IgG Fc fragment specific (Jackson Immunoresearch) in BSA block solution was added to all wells and incubated at room temperature for 30 minutes. The plates were washed with distilled water and o-phenylenediamine substrate was used as the chromagen to generate signal. Plates were read at 492 nm and the results were analyzed.

[4] = biological target: T4, HCV core peptide 4 (hepatitis C virus, N-terminal biotin; C-terminal amide); experiment: peptide EIA, 2 ug/mL IgG;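 further: purified mouse IgG binding to individually well-coated synthetic peptides, detected with peroxidase anti-mouse IgG Fc and o-phenylenediamine, IgG incubated at least 1 h at room temperature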
T4 construct: range 7-21
Description: as §1

[5] = biological target: T5, HCV core peptide 9 (hepatitis C virus, N-terminal biotin; C-terminal amide); experiment: peptide EIA, 2 ug/mL IgG;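 further: purified mouse IgG binding to individually well-coated synthetic peptides, detected with peroxidase anti-mouse IgG Fc and o-phenylenediamine, IgG incubated at least 1 h at room temperature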
T5 construct: range 17-31
Description: as §1

[6] = biological target: T6, HCV core peptide 13 (hepatitis C virus, N-terminal biotin; C-terminal amide); experiment: peptide EIA, 2 ug/mL IgG;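 further: purified mouse IgG binding to individually well-coated synthetic peptides, detected with peroxidase anti-mouse IgG Fc and o-phenylenediamine, IgG incubated at least 1 h at room temperature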
T6 construct: range 25-39
Description: as §1

[7] = biological target: T7, HCV core peptide 14 (hepatitis C virus, N-terminal biotin; C-terminal amide); experiment: peptide EIA, 2 ug/mL IgG
T7 construct: range 27-41
Description: as §1

[8] = biological target: T8, HCV core peptide 16 (hepatitis C virus, N-terminal biotin; C-terminal amide); experiment: peptide EIA, 2 ug/mL IgG
T8 construct: range 31-45
Description: as §1

[9] = biological target: T9, HCV core peptide 17 (hepatitis C virus, N-terminal biotin; C-terminal amide); experiment: peptide EIA, 2 ug/mL IgG
T9 construct: range 33-47
Description: as §1

[10] = biological target: T10, HCV core peptide 18 (hepatitis C virus, N-terminal biotin; C-terminal amide); experiment: peptide EIA, 2 ug/mL IgG
T10 construct: range 35-49
Description: as §1

[11] = biological target: T11, HCV core peptide 24 (hepatitis C virus, N-terminal biotin; C-terminal amide); experiment: peptide EIA, 2 ug/mL IgG
T11 construct: range 47-61
Description: as §1

[12] = biological target: T12, HCV core peptide 25 (hepatitis C virus, N-terminal biotin; C-terminal amide); experiment: peptide EIA, 2 ug/mL IgG
T12 construct: range 49-63
Description: as §1

[13] = biological target: T13, HCV core peptide 27 (hepatitis C virus, N-terminal biotin; C-terminal amide); experiment: peptide EIA, 2 ug/mL IgG
T13 construct: range 53-67
Description: as §1

[14] = biological target: T14, HCV core peptide 31 (hepatitis C virus, N-terminal biotin; C-terminal amide); experiment: peptide EIA, 2 ug/mL IgG
T14 construct: range 61-75
Description: as §1

[15] = biological target: T15, HCV core peptide 37 (hepatitis C virus, N-terminal biotin; C-terminal amide); experiment: peptide EIA, 2 ug/mL IgG
T15 construct: range 73-87
Description: as §1

[16] = biological target: T16, HCV core peptide 40 (hepatitis C virus, N-terminal biotin; C-terminal amide); experiment: peptide EIA, 2 ug/mL IgG
T16 construct: range 79-93
Description: as §1

[17] = biological target: T17, HCV core peptide 41 (hepatitis C virus, N-terminal biotin; C-terminal amide); experiment: peptide EIA, 2 ug/mL IgG
T17 construct: range 81-95
Description: as §1

[18] = biological target: HCV core peptide 47 (hepatitis C virus, N-terminal biotin; C-terminal amide); experiment: peptide EIA, 2 ug/mL IgG
Description: as §1

[19] = biological target: T18, HCV core peptide 52 (hepatitis C virus, HELM PEPTIDE1{[O=C1N[C@H]2[C@H](CS[C@H]2CCCCC(=O)[*:2])N1].S.G.S.G.S.R.P.S.W.G.P.T.D.P.R.R.R.S.R.[am]}$$$$V2.0; SMILES …); experiment: peptide EIA, 2 ug/mL IgG
T18 peptide: SGSGSRPSWGPTDPRRRSR
Description: as §1

[20] = biological target: T19, HCV core peptide 54 (hepatitis C virus, HELM PEPTIDE1{[O=C1N[C@H]2[C@H](CS[C@H]2CCCCC(=O)[*:2])N1].S.G.S.G.W.G.P.T.D.P.R.R.R.S.R.N.L.G.K.[am]}$$$$V2.0; SMILES …); experiment: peptide EIA, 2 ug/mL IgG
T19 peptide: SGSGWGPTDPRRRSRNLGK
Description: as §1

[21] = biological target: HCV core peptide 60 (hepatitis C virus, N-terminal biotin; C-terminal amide); experiment: peptide EIA, 2 ug/mL IgG
Description: as §1

[22] = biological target: HCV core peptide 65 (hepatitis C virus, N-terminal biotin; C-terminal amide); experiment: peptide EIA, 2 ug/mL IgG
Description: as §1

[23] = biological target: HCV core peptide 67 (hepatitis C virus, N-terminal biotin; C-terminal amide); experiment: peptide EIA, 2 ug/mL IgG
Description: as §1

[24] = biological target: T20, HCV core peptide 68 (hepatitis C virus, N-terminal biotin; C-terminal amide); experiment: peptide EIA, 2 ug/mL IgG
T20 construct: range 135-149
Description: as §1

[25] = biological target: HCV core peptide 69 (hepatitis C virus, N-terminal biotin; C-terminal amide); experiment: peptide EIA, 2 ug/mL IgG
Description: as §1

[26] = biological target: HCV core peptide 70 (hepatitis C virus, N-terminal biotin; C-terminal amide); experiment: peptide EIA, 2 ug/mL IgG
Description: as §1

[27] = biological target: HCV core peptide 77 (hepatitis C virus, N-terminal biotin; C-terminal amide); experiment: peptide EIA, 2 ug/mL IgG
Description: as §1

[28] = biological target: HCV core peptide 80 (hepatitis C virus, N-terminal biotin; C-terminal amide); experiment: peptide EIA, 2 ug/mL IgG
Description: as §1

[29] = biological target: T21, HCV core peptide 82 (hepatitis C virus, N-terminal biotin; C-terminal amide); experiment: peptide EIA, 2 ug/mL IgG
T21 construct: range 163-177
Description: as §1

[30] = biological target: HCV core peptide 84 (hepatitis C virus, N-terminal biotin; C-terminal amide); experiment: peptide EIA, 2 ug/mL IgG
Description: as §1

[31] = biological target: HCV core peptide 86 (hepatitis C virus, N-terminal biotin; C-terminal amide); experiment: peptide EIA, 2 ug/mL IgG
Description: as §1

B1: Neo4 mouse monoclonal antibody (antibody, V domains shown)
VH: QIQLKESGPAVIKPSQSLSLTCIVSGFSITSSVYCWQWIRQPPGKGLEWMGRICYDGSVDYSPSITSRGTISRDTSLNKVFFQLSSVTNEDTAMYYCSRENHIDYYDTTYPSFDVWGAGTTVTVSS
VL: DIVLTQSPASLIVSLGQRATISCRASKSVNEYGYTYMHWYQQKPGLPPKLLIYLASNLDSGVPARFSGSGSGTDFTLNIHPVEEEDAATYYCQHSRELPYTFGGGTKLEIKR
notes: Mouse hybridoma antibody, isotype IgG1, purified with Protein G; also called HCV Neo4
[1]
  binding result: no binding
[2]
  binding result: no binding
[3]
  OD (A492 nm): 0.06 OD
[4]
  OD (A492 nm): 0.06 OD
[5]
  OD (A492 nm): 0.05 OD
[6]
  OD (A492 nm): 0.05 OD
[7]
  OD (A492 nm): 0.06 OD
[8]
  OD (A492 nm): 0.06 OD
[9]
  OD (A492 nm): 0.04 OD
[10]
  OD (A492 nm): 0.05 OD
[11]
  OD (A492 nm): 0.05 OD
[12]
  OD (A492 nm): 0.04 OD
[13]
  OD (A492 nm): 0.04 OD
[14]
  OD (A492 nm): 0.05 OD
[15]
  OD (A492 nm): 0.04 OD
[16]
  OD (A492 nm): 0.05 OD
[17]
  OD (A492 nm): 0.04 OD
[18]
  OD (A492 nm): 0.05 OD
[19]
  OD (A492 nm): 0.93 OD
[20]
  OD (A492 nm): 1.01 OD
[21]
  OD (A492 nm): 0.06 OD
[22]
  OD (A492 nm): 0.04 OD
[23]
  OD (A492 nm): 0.05 OD
[24]
  OD (A492 nm): 0.04 OD
[25]
  OD (A492 nm): 0.05 OD
[26]
  OD (A492 nm): 0.04 OD
[27]
  OD (A492 nm): 0.05 OD
[28]
  OD (A492 nm): 0.05 OD
[29]
  OD (A492 nm): 0.04 OD
[30]
  OD (A492 nm): 0.05 OD
[31]
  OD (A492 nm): 0.05 OD
